{"source": "patent US20170165321A1", "about": "“METHOD FOR REDUCING AND/OR DELAYING PATHOLOGICAL EFFECTS OF HUMAN IMMUNODEFICIENCY VIRUS I (HIV) OR FOR REDUCING THE RISK OF DEVELOPING ACQUIRED IMMUNODEFICIENCY SYNDROME (AIDS)” (Bionor Immuno AS, priority 2014, published 2017)", "molecules": {"B1": {"name": "Vacc-4x: four synthetic peptides (Vacc-10, Vacc-11, Vacc-12, Vacc-13 acetate) corresponding to conserved domains on HIV-1 p24; SEQ ID NOs 3, 6, 11, 18 (peptide)", "chain 1": "APTRAKRRVVQREKRAV", "chain 2": "DRPEGIEEEGGERDR", "chain 3": "QLLLNGSLAEEEIVI", "chain 4": "GGAKRRVVGGAKRRVVGGQREKR", "modifications": "also: acetate salts"}}, "key": {"HIV positive subjects": {"test_system": "HIV positive subjects", "experiment": "Phase II dose-finding study CTN B-HIV 2/2001", "format": "in vivo, human", "protocol": "The Phase II dose-finding study (CTN B-HIV 2/2001) enrolled 40 HIV positive subjects, of which 38 completed the trial. Subjects were maintained on ART and treated with 10 immunizations at a dose of 0.4 mg (20 subjects) or 1.2 mg (20 subjects) per Vacc 4x injection, over a period of 26 weeks. Immunizations with Vacc 4x were performed following injection of rhu-GM-CSF (Leucomax [molgramostim]) as a local adjuvant. ART was interrupted from Week 26 to Week 30 to allow exposure to the subject's own virus (autologous immunization). ART was resumed from Week 30 to Week 38 to allow maturation of immune responses to the Vacc 4x peptides and to the subject's own virus. ART was discontinued from Week 38 to Week 52 when the study was formally concluded. […] One subject experienced a transient vasovagal reaction in conjunction with immunization and the DTH test at Week 26 and Week 38. A second subject experienced a vasovagal reaction in conjunction with the DTH test at Week 52. For the laboratory parameters, vital signs, and performance status, no changes attributable to immunization were observed.\nThe dose-dependent differences in DTH reactions were maintained throughout the study. […] ART was interrupted at Week 38 with planned restart when CD4 counts fell to less than 200/μL or when AIDS- or HIV related events were observed (i.e. clinical practice).\nHowever, 14 weeks after the last interruption of ART (Week 52), the mean CD4 counts were still above 200×10^6 cells/L. No difference between the LD and the HD groups was observed. The majority of subjects remained off ART following completion of the study (Week 52); permission was given to follow the subjects until they resumed ART. The duration of treatment interruption was linked to immune responsiveness to the peptides. […] The median treatment interruption achieved for all the subjects that participated in the Vacc-4x Phase II clinical study was 31 months."}, "mice": {"test_system": "mice", "experiment": "Single-dose intravenous toxicity study in mice", "format": "in vivo, mouse", "protocol": "(§1) Toxicity studies were performed in mice and rats on the peptide composition of the vaccine in Example 2. The mouse was selected for the study to provide comparative data from a second commonly used rodent species. The test substance was a mixture of four peptides supplied as one vial containing lyophilised material for reconstitution with physiological saline, and dose levels were expressed in terms of total peptide load. The individual peptides was present in ratio 1:1:1:1 w/w giving dose levels of each peptide of 0.0075 mg/kg body weight, 0.075 mg/kg body weight and 0.75 mg/kg body weight, which are up to 500 fold the intended human dose. The test animals were divided into four groups of ten animals each (five males and five females); a saline control group and groups for low, intermediate and high doses. The test composition was administered once, by intravenous infusion into a tail vein at a dose rate of 3 ml/minute. The animals were killed at day 15 and 16 by intraperitoneal injection of sodium pentobarbitone."}, "[1]": {"experiment": "Osmolality of reconstituted Vacc-4x drug product", "format": "physicochemical", "protocol": "The range of 10-100 mOsm/kg was defined based on the result obtained for the technical sample. Potential variability due to the four peptides is taken into account. For the drug product, approximately 1 mg of each of the four Vacc-4x peptides was used. The lyophilisate is reconstituted with 0.30 mL of WFI. Taking the acetic acid contents of the peptides listed in table 1 into account, the acetic acid content of Vacc-4x is approximately 0.40 mg in 0.30 mL of solution. The theoretical osmolality is approximately 23 mOsmol/L by calculation, which correlates well with the values determined in the Vacc-4x batches (20-23 mOsmol/kg)."}, "rabbit": {"test_system": "rabbit", "experiment": "Rabbit study of intradermal Vacc-4x with concomitant GM-CSF", "format": "in vivo", "protocol": "In a rabbit study the effect of Vacc-4x was evaluated in the presence of concomitant GM-CSF, the adjuvant used in the clinical program."}, "rats": {"test_system": "rats", "experiment": "Single-dose intravenous toxicity study in rats", "format": "in vivo, rat", "protocol": "as §1"}, "[2]": {"test_system": "HIV-1 DNA (HIV-1 gag gene)", "experiment": "Proviral DNA by real-time PCR in re-boosting study CT-BI Vacc-4x 2012/1", "format": "in vivo, human", "settings": "PP", "protocol": "The study CT-BI Vacc-4x 2012/1 (EudraCT Number: 2012-002281-12) is an open label, multicenter, follow-up, re-boosting study of subjects who previously completed the immunization regimen with Vacc-4x active and stopped ART (at Week 28) in the CT-BI Vacc-4x 2007/1 Study (EudraCT Number 2007-006302-13). No restart of ART is required. The subjects will be re-boosted with two immunizations (Visit 2 and Visit 3) of Vacc-4x, 1.2 mg peptides (12 mg/mL), with a 2 week interval between immunizations.\nHIV-1 DNA levels will be determined by real-time PCR (Taqman) assay targeting HIV-1 gag gene. Briefly, DNA for each subject at visit 2, 4, 6, 9 and 10 will be extracted from total PBMCs (1-4 million cells), eluted in appropriate storage buffer, quantified and stored at −20° C. until used. Equal amounts of DNA (≈300 ng) will be used to quantify gag and albumin genes in order to determine the number of copies of HIV-DNA per million of cells.\nThere was a decrease in proviral DNA levels of approximately 50% after immunization while on ART, based on geometric means."}, "[3]": {"settings": "single intravenous dose, total peptide load"}, "[4]": {"settings": "single intravenous infusion, up to 0.75 mg/kg of each peptide"}, "[5]": {"settings": "0.4 mg/injection, 12 immunizations"}}, "note": "Where no end group is shown, it is not given here."}
{"molecule": "B1", "values": [{"measurement": "subjects with treatment-related AEs", "setting": "HIV positive subjects; 0.4 mg group (20 subjects)", "result": 8, "unit": "subjects"}, {"measurement": "DTH positive reactions", "setting": "HIV positive subjects; 0.4 mg or 1.2 mg per injection", "result": "observed for all subjects"}, {"measurement": "SAEs during the period of immunization", "setting": "HIV positive subjects; 0.4 mg or 1.2 mg per injection", "result": "No SAEs were reported"}, {"measurement": "subjects with treatment-related AEs", "setting": "HIV positive subjects; 1.2 mg group (20 subjects)", "result": 12, "unit": "subjects"}, {"measurement": "DTH positive responses (induration and erythema), high dose versus low dose", "setting": "HIV positive subjects; 1.2 mg versus 0.4 mg", "result": "statistically significantly higher in the high dose"}, {"measurement": "median treatment interruption", "setting": "HIV positive subjects; all subjects of the Phase II study, off ART", "result": 31, "unit": "months"}, {"measurement": "subjects with treatment-related AEs", "setting": "HIV positive subjects; both dose groups, 40 subjects, 10 immunizations over 26 weeks", "result": 20, "unit": "subjects"}, {"measurement": "decline in CD4 cells versus similar subjects who stopped treatment without Vacc-4x", "setting": "HIV positive subjects; comparison with subjects in the Netherlands", "result": "significantly slower decline in CD4 cells"}, {"measurement": "CD4 counts during the immunization period", "setting": "HIV positive subjects; on ART", "result": "stable or increased"}, {"measurement": "safety margin over the planned human dose level", "setting": "mice; from no effect level", "result": 500, "unit": "fold"}, {"measurement": "no effect level", "setting": "mice; [3]", "result": "> 3", "unit": "mg/kg"}, {"measurement": "adverse reactions", "setting": "mice; [4]", "result": "no adverse reactions"}, {"measurement": "theoretical osmolality", "setting": "[1]; by calculation, approx. 0.40 mg acetic acid in 0.30 mL", "result": "approximately 23 mOsmol/L"}, {"measurement": "osmolality determined in the Vacc-4x batches", "setting": "[1]; lyophilisate, approx. 1 mg of each peptide, reconstituted with 0.30 mL WFI", "result": "20-23 mOsmol/kg"}, {"measurement": "limiting toxicology", "setting": "rabbit", "result": "no limiting toxicology"}, {"measurement": "local intradermal reactions (erythema, edema) versus control animals", "setting": "rabbit", "result": "slightly more pronounced"}, {"measurement": "systemic reactions", "setting": "rabbit", "result": "no systemic reactions"}, {"measurement": "safety margin over the planned human dose level", "setting": "rats; from no effect level", "result": 500, "unit": "fold"}, {"measurement": "no effect level", "setting": "rats; [3]", "result": "> 3", "unit": "mg/kg"}, {"measurement": "adverse reactions", "setting": "rats; [4]", "result": "no adverse reactions"}, {"measurement": "Proviral DNA, Geometric mean", "setting": "[2]; Baseline, n 26", "result": 22.3, "unit": "copies/mL"}, {"measurement": "Proviral DNA, Mean", "setting": "[2]; Baseline, n 26", "result": 98.4, "unit": "copies/mL"}, {"measurement": "Proviral DNA, Median", "setting": "[2]; Baseline, n 26", "result": 57.0, "unit": "copies/mL"}, {"measurement": "Proviral DNA, Geometric mean ratio (Week 4/Baseline)", "setting": "[2]; n 26", "result": 0.5}, {"measurement": "Proviral DNA, Geometric mean", "setting": "[2]; Week 4, n 26 (Table 3)", "result": 11.4, "unit": "Copies/mL"}, {"measurement": "Proviral DNA, Mean", "setting": "[2]; Week 4, n 26 (Table 3)", "result": 93.9, "unit": "Copies/mL"}, {"measurement": "Proviral DNA, Median", "setting": "[2]; Week 4, n 26 (Table 3)", "result": 34.5, "unit": "Copies/mL"}, {"measurement": "Proviral DNA, Geometric mean", "setting": "[2]; Week 4, n 27 (Table 2)", "result": 12.9, "unit": "copies/mL"}, {"measurement": "Proviral DNA, Mean", "setting": "[2]; Week 4, n 27 (Table 2)", "result": 100.8, "unit": "copies/mL"}, {"measurement": "Proviral DNA, Median", "setting": "[2]; Week 4, n 27 (Table 2)", "result": 45.0, "unit": "copies/mL"}, {"measurement": "serious adverse events", "setting": "HIV-positive subjects; [5]", "result": "no serious adverse events (SAEs) occurred"}, {"measurement": "severity of adverse reactions", "setting": "HIV-positive subjects; [5]", "result": "mild or moderate in severity except for severe local reactions in one subject"}, {"measurement": "antibody response to Vacc-4x peptides", "setting": "HIV-positive subjects; 11 subjects", "result": "no antibody response"}, {"measurement": "cell-mediated immune response by delayed-type hypersensitivity (DTH) skin reaction", "setting": "HIV-positive subjects; 11 subjects", "result": "All subjects experienced a cell-mediated immune response"}, {"measurement": "subjects with cell-mediated immune response by γ IFN release ELISPOT", "setting": "HIV-positive subjects; 11 subjects", "result": "45 % of the subjects"}, {"measurement": "treatment related fatigue-vertigo", "setting": "HIV-positive subjects; 11 subjects", "result": "four"}, {"measurement": "treatment related influenza-like symptoms", "setting": "HIV-positive subjects; 11 subjects", "result": "two"}, {"measurement": "treatment related irritated skin at injection site", "setting": "HIV-positive subjects; 11 subjects", "result": "two"}, {"measurement": "treatment related painful injection", "setting": "HIV-positive subjects; 11 subjects", "result": "seven"}, {"measurement": "subjects with events judged related to treatment", "setting": "HIV-positive subjects; 11 subjects, 0.4 mg/injection, 12 immunizations", "result": "nine"}, {"measurement": "subjects with one or more adverse events", "setting": "HIV-positive subjects; 11 subjects, 12 immunizations of 0.4 mg/injection over 26 weeks, rhu-GM-CSF adjuvant", "result": "All subjects experienced one or more adverse events"}]}
